Assay results reported in patent US20240261333A1 (published 2024).

T1: IMMT (human, UniProt Q16891-4 34-757, limits assumed)
T1 construct: also called NP_001093639.1 (+3)
T1 sequence (looked up): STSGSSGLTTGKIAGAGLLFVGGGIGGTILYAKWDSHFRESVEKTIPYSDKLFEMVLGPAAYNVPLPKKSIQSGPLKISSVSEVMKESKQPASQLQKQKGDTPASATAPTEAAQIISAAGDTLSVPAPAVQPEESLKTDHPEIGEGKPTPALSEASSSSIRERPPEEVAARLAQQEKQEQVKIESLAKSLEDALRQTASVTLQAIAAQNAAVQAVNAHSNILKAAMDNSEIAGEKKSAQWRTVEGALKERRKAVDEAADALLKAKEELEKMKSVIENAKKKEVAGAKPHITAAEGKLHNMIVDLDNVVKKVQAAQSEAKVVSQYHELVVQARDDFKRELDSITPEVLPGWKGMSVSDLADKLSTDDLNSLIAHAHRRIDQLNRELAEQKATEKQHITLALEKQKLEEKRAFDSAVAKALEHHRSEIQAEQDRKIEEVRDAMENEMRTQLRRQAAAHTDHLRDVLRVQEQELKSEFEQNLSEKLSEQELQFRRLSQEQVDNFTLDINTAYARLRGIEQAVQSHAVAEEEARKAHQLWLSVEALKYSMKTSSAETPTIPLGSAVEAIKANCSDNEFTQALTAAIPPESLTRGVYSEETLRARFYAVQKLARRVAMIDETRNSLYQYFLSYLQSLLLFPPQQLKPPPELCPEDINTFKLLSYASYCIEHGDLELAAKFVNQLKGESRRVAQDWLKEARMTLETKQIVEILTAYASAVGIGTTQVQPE

T2: MMS19 (human, UniProt Q96T76-9 2-987, limits assumed)
T2 construct: also called NP_001276332.1 (+9)
T2 sequence (looked up): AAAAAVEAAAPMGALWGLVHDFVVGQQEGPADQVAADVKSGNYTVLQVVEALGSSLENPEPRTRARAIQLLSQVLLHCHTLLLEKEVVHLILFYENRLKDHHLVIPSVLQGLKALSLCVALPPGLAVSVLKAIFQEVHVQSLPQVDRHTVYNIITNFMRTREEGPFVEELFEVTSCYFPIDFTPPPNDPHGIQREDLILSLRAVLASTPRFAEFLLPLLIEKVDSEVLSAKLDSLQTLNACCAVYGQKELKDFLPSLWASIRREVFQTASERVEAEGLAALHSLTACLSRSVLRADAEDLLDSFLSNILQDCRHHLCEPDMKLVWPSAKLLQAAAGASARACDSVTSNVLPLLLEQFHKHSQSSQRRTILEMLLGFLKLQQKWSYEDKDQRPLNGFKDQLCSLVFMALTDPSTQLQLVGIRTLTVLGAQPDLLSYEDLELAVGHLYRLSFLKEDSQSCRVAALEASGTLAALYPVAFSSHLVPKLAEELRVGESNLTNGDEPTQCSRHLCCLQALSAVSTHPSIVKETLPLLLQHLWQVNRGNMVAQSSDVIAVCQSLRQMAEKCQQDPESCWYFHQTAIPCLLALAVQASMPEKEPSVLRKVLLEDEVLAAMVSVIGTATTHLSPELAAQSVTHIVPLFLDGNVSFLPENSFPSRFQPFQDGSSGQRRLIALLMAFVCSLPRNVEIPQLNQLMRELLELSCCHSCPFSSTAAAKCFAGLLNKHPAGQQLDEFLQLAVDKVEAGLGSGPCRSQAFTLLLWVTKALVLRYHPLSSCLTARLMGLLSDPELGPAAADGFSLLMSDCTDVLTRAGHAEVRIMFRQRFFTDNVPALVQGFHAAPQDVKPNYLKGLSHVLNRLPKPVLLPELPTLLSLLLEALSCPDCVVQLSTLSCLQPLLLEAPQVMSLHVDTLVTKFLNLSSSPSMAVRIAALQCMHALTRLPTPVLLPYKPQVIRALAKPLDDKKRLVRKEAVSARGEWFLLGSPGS

B1: C-terminal FLAG tagged B3GNT2 (enzyme, human, UniProt Q9NY97 1-397, looked up)
chain: MSVGRRRIKLLGILMMANVFIYFIMEVSKSSSQEKNGKGEVIIPKEKFWKISTPPEAYWNREQEKLNRQYNPILSMLTNQTGEAGRLSNISHLNYCEPDLRVTSVVTGFNNLPDRFKDFLLYLRCRNYSLLIDQPDKCAKKPFLLLAIKSLTPHFARRQAIRESWGQESNAGNQTVVRVFLLGQTPPEDNHPDLSDMLKFESEKHQDILMWNYRDTFFNLSLKEVLFLRWVSTSCPDTEFVFKGDDDVFVNTHHILNYLNSLSKTKAKDLFIGDVIHNAGPHRDKKLKYYIPEVVYSGLYPPYAGGGGFLYSGHLALRLYHITDQVHLYPIDDVYTGMCLQKLGLVPEKHKGFRTFDIEEKNKNNICSYVDLMLVHSRKPQEMIDIWSQLQSAHLKC
notes: FLAG-tagged ORF overexpressed in cells; pulled down from lysate with mouse anti-FLAG; also called C-FLAG B3GNT2; C-term flag; not shown: C-terminal FLAG tag
B2: C-terminal FLAG tagged B3GNT2 (enzyme, human, UniProt Q9NY97 1-397, looked up)
chain: MSVGRRRIKLLGILMMANVFIYFIMEVSKSSSQEKNGKGEVIIPKEKFWKISTPPEAYWNREQEKLNRQYNPILSMLTNQTGEAGRLSNISHLNYCEPDLRVTSVVTGFNNLPDRFKDFLLYLRCRNYSLLIDQPDKCAKKPFLLLAIKSLTPHFARRQAIRESWGQESNAGNQTVVRVFLLGQTPPEDNHPDLSDMLKFESEKHQDILMWNYRDTFFNLSLKEVLFLRWVSTSCPDTEFVFKGDDDVFVNTHHILNYLNSLSKTKAKDLFIGDVIHNAGPHRDKKLKYYIPEVVYSGLYPPYAGGGGFLYSGHLALRLYHITDQVHLYPIDDVYTGMCLQKLGLVPEKHKGFRTFDIEEKNKNNICSYVDLMLVHSRKPQEMIDIWSQLQSAHLKC
notes: FLAG-tagged ORF overexpressed in A375 cells; pulled down from the lysate with mouse anti-FLAG; also called C-FLAG B3GNT2; C-term flag; not shown: C-terminal FLAG tag

Assays:
Assay in all cases: co-IP with anti-FLAG, C-FLAG B3GNT2, mass spectrometry
FLG = biological target: T3, FLG (human, UniProt P20930 1-4061, limits assumed)
T3 construct: also called NP_002007.1

IMMT = biological target: T1, IMMT
MMS19 = biological target: T2, MMS19
CLTC = biological target: T4, CLTC (human, UniProt Q00610 2-1675, limits assumed)
T4 construct: also called NP_001275582.1 (+2)
T4 sequence (Q00610 2-1675 limits assumed): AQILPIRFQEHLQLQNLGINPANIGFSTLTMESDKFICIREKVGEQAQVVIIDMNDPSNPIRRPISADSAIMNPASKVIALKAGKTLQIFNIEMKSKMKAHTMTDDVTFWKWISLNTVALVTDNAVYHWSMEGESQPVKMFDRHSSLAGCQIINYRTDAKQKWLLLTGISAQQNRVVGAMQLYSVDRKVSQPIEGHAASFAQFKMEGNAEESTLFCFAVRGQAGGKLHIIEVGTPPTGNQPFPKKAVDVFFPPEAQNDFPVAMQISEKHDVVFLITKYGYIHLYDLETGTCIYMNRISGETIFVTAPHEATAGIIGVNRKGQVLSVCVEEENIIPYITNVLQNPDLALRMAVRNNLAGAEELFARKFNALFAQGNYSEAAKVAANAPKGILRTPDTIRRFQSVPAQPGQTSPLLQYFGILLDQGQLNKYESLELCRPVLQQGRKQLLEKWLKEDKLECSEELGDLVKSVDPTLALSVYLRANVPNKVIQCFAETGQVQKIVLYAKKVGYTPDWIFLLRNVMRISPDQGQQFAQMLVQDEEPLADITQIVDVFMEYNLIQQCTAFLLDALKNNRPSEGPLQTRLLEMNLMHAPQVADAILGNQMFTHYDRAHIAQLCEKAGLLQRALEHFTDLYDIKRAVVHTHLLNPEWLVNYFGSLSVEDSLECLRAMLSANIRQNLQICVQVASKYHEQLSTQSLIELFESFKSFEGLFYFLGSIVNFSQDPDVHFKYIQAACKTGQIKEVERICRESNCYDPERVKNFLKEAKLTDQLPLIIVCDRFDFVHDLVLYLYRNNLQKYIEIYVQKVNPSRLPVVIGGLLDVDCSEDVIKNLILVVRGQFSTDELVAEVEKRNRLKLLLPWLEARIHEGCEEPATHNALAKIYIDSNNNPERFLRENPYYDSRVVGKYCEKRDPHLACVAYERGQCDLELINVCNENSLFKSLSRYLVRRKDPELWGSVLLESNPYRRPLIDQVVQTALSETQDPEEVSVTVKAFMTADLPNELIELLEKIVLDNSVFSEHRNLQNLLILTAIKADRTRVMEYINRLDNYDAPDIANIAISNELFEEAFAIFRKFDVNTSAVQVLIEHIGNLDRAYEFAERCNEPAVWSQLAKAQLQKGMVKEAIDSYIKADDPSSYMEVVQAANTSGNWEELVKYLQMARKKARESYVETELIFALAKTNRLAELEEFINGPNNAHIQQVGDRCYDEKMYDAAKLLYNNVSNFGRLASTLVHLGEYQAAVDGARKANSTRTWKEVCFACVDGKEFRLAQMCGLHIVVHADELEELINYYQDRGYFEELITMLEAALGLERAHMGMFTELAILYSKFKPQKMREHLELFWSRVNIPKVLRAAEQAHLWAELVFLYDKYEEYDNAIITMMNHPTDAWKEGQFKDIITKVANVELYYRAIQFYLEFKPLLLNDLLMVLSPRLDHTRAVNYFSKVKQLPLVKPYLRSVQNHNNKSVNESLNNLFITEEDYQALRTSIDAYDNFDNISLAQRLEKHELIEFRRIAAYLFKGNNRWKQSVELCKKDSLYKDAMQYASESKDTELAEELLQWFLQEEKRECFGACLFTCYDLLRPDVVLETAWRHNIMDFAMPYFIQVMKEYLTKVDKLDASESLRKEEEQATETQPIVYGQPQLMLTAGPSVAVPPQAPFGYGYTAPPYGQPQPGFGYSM

Binder | co-IP mass spectrometry count (FLG) | co-IP mass spectrometry count (IMMT) | co-IP/MS count, C-term flag (MMS19) | co-IP/MS count, C-term flag (CLTC)
B1 | 22 | 26 | – | –
B2 | – | – | 0 | 7
